From patent US20140193378A1 (UNIVERSITY OF MIAMI, published 2014)
Non-standard residues stand in square brackets, D forms with d. No end group written: not given here. *: point of attachment. Phe(F5) = N[C@@H](Cc1c(F)c(F)c(F)c(F)c1F)C(=O)O; Desaminotyrosyl = O=C(CCc1ccc(O)cc1)*; NMeY = CN[C@@H](Cc1ccc(O)cc1)C(=O)O; Agmatine = N=C(N)NCCCCN*; NMeA = CN[C@@H](C)C(=O)O; Nle = CCCC[C@H](N)C(=O)O; Orn = NCCC[C@H](N)C(=O)O; Abu = CC[C@H](N)C(=O)O; Ava = NCCCCC(=O)O; GABA = NCCCC(=O)O

T1: human GHRH receptor (human pituitary membrane homogenates) (human, UniProt Q02643 23-423)
T1 construct: whole, on cells; Native receptor in human pituitary membrane homogenates, not on intact cells; also called hGHRH receptor
T1 sequence (looked up): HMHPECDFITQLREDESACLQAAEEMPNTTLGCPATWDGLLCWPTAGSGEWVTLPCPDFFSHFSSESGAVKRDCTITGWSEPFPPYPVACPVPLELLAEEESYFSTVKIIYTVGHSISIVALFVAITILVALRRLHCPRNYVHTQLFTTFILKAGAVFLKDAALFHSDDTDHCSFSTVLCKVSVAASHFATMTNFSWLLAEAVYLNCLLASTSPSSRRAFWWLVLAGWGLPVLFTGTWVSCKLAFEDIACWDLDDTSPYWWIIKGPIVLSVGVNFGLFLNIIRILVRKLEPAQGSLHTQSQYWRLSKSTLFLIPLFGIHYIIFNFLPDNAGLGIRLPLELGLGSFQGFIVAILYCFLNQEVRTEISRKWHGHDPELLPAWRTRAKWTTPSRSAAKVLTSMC

B1: P-22326 [N-Me-Tyr^1, D-Ala^2, Gln^8, Orn^12, Abu^15, Orn^21, Nle^27, Asp^28, Apa^30]hGHRH(1-30)NH2 (peptide)
peptide: [NMeY][dA]DAIFTQSYR[Orn]VL[Abu]QLSAR[Orn]LLQDI[Nle]DR[Ava]-NH2
modifications: N-terminus assumed
SMILES: CCCC[C@H](NC(=O)[C@@H](NC(=O)[C@H](CC(=O)O)NC(=O)[C@H](CCC(N)=O)NC(=O)[C@H](CC(C)C)NC(=O)[C@H](CC(C)C)NC(=O)[C@H](CCCN)NC(=O)[C@H](CCCNC(=N)N)NC(=O)[C@H](C)NC(=O)[C@H](CO)NC(=O)[C@H](CC(C)C)NC(=O)[C@H](CCC(N)=O)NC(=O)[C@H](CC)NC(=O)[C@H](CC(C)C)NC(=O)[C@@H](NC(=O)[C@H](CCCN)NC(=O)[C@H](CCCNC(=N)N)NC(=O)[C@H](Cc1ccc(O)cc1)NC(=O)[C@H](CO)NC(=O)[C@H](CCC(N)=O)NC(=O)[C@@H](NC(=O)[C@H](Cc1ccccc1)NC(=O)[C@@H](NC(=O)[C@H](C)NC(=O)[C@H](CC(=O)O)NC(=O)[C@@H](C)NC(=O)[C@H](Cc1ccc(O)cc1)NC)[C@@H](C)CC)[C@@H](C)O)C(C)C)[C@@H](C)CC)C(=O)N[C@@H](CC(=O)O)C(=O)N[C@@H](CCCNC(=N)N)C(=O)NCCCCC(N)=O
notes: also called Peptide 22326
B2: P-25501 [N-Me-Tyr^1, D-Ala^2, Orn^12, Abu^15, Orn^21, Nle^27, Gab^30]hGHRH(1-30)NH2 (peptide)
peptide: [NMeY][dA]DAIFTNSYR[Orn]VL[Abu]QLSAR[Orn]LLQDI[Nle]SR[GABA]-NH2
modifications: N-terminus assumed
SMILES: CCCC[C@H](NC(=O)[C@@H](NC(=O)[C@H](CC(=O)O)NC(=O)[C@H](CCC(N)=O)NC(=O)[C@H](CC(C)C)NC(=O)[C@H](CC(C)C)NC(=O)[C@H](CCCN)NC(=O)[C@H](CCCNC(=N)N)NC(=O)[C@H](C)NC(=O)[C@H](CO)NC(=O)[C@H](CC(C)C)NC(=O)[C@H](CCC(N)=O)NC(=O)[C@H](CC)NC(=O)[C@H](CC(C)C)NC(=O)[C@@H](NC(=O)[C@H](CCCN)NC(=O)[C@H](CCCNC(=N)N)NC(=O)[C@H](Cc1ccc(O)cc1)NC(=O)[C@H](CO)NC(=O)[C@H](CC(N)=O)NC(=O)[C@@H](NC(=O)[C@H](Cc1ccccc1)NC(=O)[C@@H](NC(=O)[C@H](C)NC(=O)[C@H](CC(=O)O)NC(=O)[C@@H](C)NC(=O)[C@H](Cc1ccc(O)cc1)NC)[C@@H](C)CC)[C@@H](C)O)C(C)C)[C@@H](C)CC)C(=O)N[C@@H](CO)C(=O)N[C@@H](CCCNC(=N)N)C(=O)NCCCC(N)=O
notes: also called Peptide 25501
B3: P-20357 [Dat^1, D-Ala^2, N-Me-Ala^8, Orn^12, Abu^15, Orn^21, Nle^27, Asp^28, Agm^29]hGHRH(1-29)NH2 (peptide)
peptide: [Desaminotyrosyl][dA]DAIFT[NMeA]SYR[Orn]VL[Abu]QLSAR[Orn]LLQDI[Nle]D[Agmatine]
SMILES: CCCC[C@H](NC(=O)[C@@H](NC(=O)[C@H](CC(=O)O)NC(=O)[C@H](CCC(N)=O)NC(=O)[C@H](CC(C)C)NC(=O)[C@H](CC(C)C)NC(=O)[C@H](CCCN)NC(=O)[C@H](CCCNC(=N)N)NC(=O)[C@H](C)NC(=O)[C@H](CO)NC(=O)[C@H](CC(C)C)NC(=O)[C@H](CCC(N)=O)NC(=O)[C@H](CC)NC(=O)[C@H](CC(C)C)NC(=O)[C@@H](NC(=O)[C@H](CCCN)NC(=O)[C@H](CCCNC(=N)N)NC(=O)[C@H](Cc1ccc(O)cc1)NC(=O)[C@H](CO)NC(=O)[C@H](C)N(C)C(=O)[C@@H](NC(=O)[C@H](Cc1ccccc1)NC(=O)[C@@H](NC(=O)[C@H](C)NC(=O)[C@H](CC(=O)O)NC(=O)[C@@H](C)NC(=O)CCc1ccc(O)cc1)[C@@H](C)CC)[C@@H](C)O)C(C)C)[C@@H](C)CC)C(=O)N[C@@H](CC(=O)O)C(=O)NCCCCNC(=N)N
notes: also called Peptide 20357
B4: P-27400 [Dat^1, D-Ala^2, Orn^12, Abu^15, Orn^21, Nle^27, Asp^28]hGHRH(1-29)NH-CH3 (peptide)
peptide: [Desaminotyrosyl][dA]DAIFTNSYR[Orn]VL[Abu]QLSAR[Orn]LLQDI[Nle]DR-NHMe
SMILES: CCCC[C@H](NC(=O)[C@@H](NC(=O)[C@H](CC(=O)O)NC(=O)[C@H](CCC(N)=O)NC(=O)[C@H](CC(C)C)NC(=O)[C@H](CC(C)C)NC(=O)[C@H](CCCN)NC(=O)[C@H](CCCNC(=N)N)NC(=O)[C@H](C)NC(=O)[C@H](CO)NC(=O)[C@H](CC(C)C)NC(=O)[C@H](CCC(N)=O)NC(=O)[C@H](CC)NC(=O)[C@H](CC(C)C)NC(=O)[C@@H](NC(=O)[C@H](CCCN)NC(=O)[C@H](CCCNC(=N)N)NC(=O)[C@H](Cc1ccc(O)cc1)NC(=O)[C@H](CO)NC(=O)[C@H](CC(N)=O)NC(=O)[C@@H](NC(=O)[C@H](Cc1ccccc1)NC(=O)[C@@H](NC(=O)[C@H](C)NC(=O)[C@H](CC(=O)O)NC(=O)[C@@H](C)NC(=O)CCc1ccc(O)cc1)[C@@H](C)CC)[C@@H](C)O)C(C)C)[C@@H](C)CC)C(=O)N[C@@H](CC(=O)O)C(=O)N[C@@H](CCCNC(=N)N)C(=O)NC
B5: P-27401 [Dat^1, D-Ala^2, Gln^8, Orn^12, Abu^15, Orn^21, Nle^27, Asp^28, D-Arg^29]hGHRH(1-29)NH-CH3 (peptide)
peptide: [Desaminotyrosyl][dA]DAIFTQSYR[Orn]VL[Abu]QLSAR[Orn]LLQDI[Nle]D[dR]-NHMe
SMILES: CCCC[C@H](NC(=O)[C@@H](NC(=O)[C@H](CC(=O)O)NC(=O)[C@H](CCC(N)=O)NC(=O)[C@H](CC(C)C)NC(=O)[C@H](CC(C)C)NC(=O)[C@H](CCCN)NC(=O)[C@H](CCCNC(=N)N)NC(=O)[C@H](C)NC(=O)[C@H](CO)NC(=O)[C@H](CC(C)C)NC(=O)[C@H](CCC(N)=O)NC(=O)[C@H](CC)NC(=O)[C@H](CC(C)C)NC(=O)[C@@H](NC(=O)[C@H](CCCN)NC(=O)[C@H](CCCNC(=N)N)NC(=O)[C@H](Cc1ccc(O)cc1)NC(=O)[C@H](CO)NC(=O)[C@H](CCC(N)=O)NC(=O)[C@@H](NC(=O)[C@H](Cc1ccccc1)NC(=O)[C@@H](NC(=O)[C@H](C)NC(=O)[C@H](CC(=O)O)NC(=O)[C@@H](C)NC(=O)CCc1ccc(O)cc1)[C@@H](C)CC)[C@@H](C)O)C(C)C)[C@@H](C)CC)C(=O)N[C@@H](CC(=O)O)C(=O)N[C@H](CCCNC(=N)N)C(=O)NC
B6: P-27408 [Dat^1, D-Ala^2, Gln^8, Orn^12, Abu^15, Orn^21, Nle^27, Asp^28]hGHRH(1-29)NH-CH3 (peptide)
peptide: [Desaminotyrosyl][dA]DAIFTQSYR[Orn]VL[Abu]QLSAR[Orn]LLQDI[Nle]DR-NHMe
SMILES: CCCC[C@H](NC(=O)[C@@H](NC(=O)[C@H](CC(=O)O)NC(=O)[C@H](CCC(N)=O)NC(=O)[C@H](CC(C)C)NC(=O)[C@H](CC(C)C)NC(=O)[C@H](CCCN)NC(=O)[C@H](CCCNC(=N)N)NC(=O)[C@H](C)NC(=O)[C@H](CO)NC(=O)[C@H](CC(C)C)NC(=O)[C@H](CCC(N)=O)NC(=O)[C@H](CC)NC(=O)[C@H](CC(C)C)NC(=O)[C@@H](NC(=O)[C@H](CCCN)NC(=O)[C@H](CCCNC(=N)N)NC(=O)[C@H](Cc1ccc(O)cc1)NC(=O)[C@H](CO)NC(=O)[C@H](CCC(N)=O)NC(=O)[C@@H](NC(=O)[C@H](Cc1ccccc1)NC(=O)[C@@H](NC(=O)[C@H](C)NC(=O)[C@H](CC(=O)O)NC(=O)[C@@H](C)NC(=O)CCc1ccc(O)cc1)[C@@H](C)CC)[C@@H](C)O)C(C)C)[C@@H](C)CC)C(=O)N[C@@H](CC(=O)O)C(=O)N[C@@H](CCCNC(=N)N)C(=O)NC
notes: also called Peptide 27408

Molecular target: T1, human GHRH receptor (human pituitary …)
Test: radioligand competition vs 125I-JV-1-42 (0.2 nM), human pituitary membranes
Text: Normal human pituitaries were purchased from the National Hormone and Peptide Program (A. F. Parlow, Los Angeles, County Harbor-UCLA Medical Center, Torrance, Calif.).

Binder	Relative affinity (Binding potency) vs JI-38 [fold]
[NMeY][dA]DAIFTQSYR[Orn]VL[Abu]QLSAR[Orn]LLQDI[Nle]DR-NHEt (also called Peptide 28420) [P-28420 [N-Me-Tyr^1, D-Ala^2, Gln^8, Orn^12, Abu^15, Orn^21, Nle^27, Asp^28]hGHRH(1-29)NH-CH2-CH3]	8.37
B1	6.12
[NMeY][dA]DAI[Phe(F5)]TNSYR[Orn]VL[Abu]QLSAR[Orn]LLQDI[Nle]SR[GABA]-NHMe (also called Peptide 27414) [P-27414 [N-Me-Tyr^1, D-Ala^2, Fpa5^6, Orn^12, Abu^15, Orn^21, Nle^27, Gab^30]hGHRH(1-30)NH-CH3]	2.79
B2	4.07
B3	5.06
[NMeY][dA]DAIFTNSYR[Orn]VL[Abu]QLSAR[Orn]LLQDI[Nle]D[Agmatine] (also called Peptide 20367) [P-20367 [N-Me-Tyr^1, D-Ala^2, Orn^12, Abu^15, Orn^21, Nle^27, Asp^28, Agm^29]hGHRH(1-29)NH2]	2.56
[NMeY][dA]DAI[Phe(F5)]TNSYR[Orn]VL[Abu]QLSAR[Orn]LLQDI[Nle]D[Agmatine] (also called Peptide 20359) [P-20359 [N-Me-Tyr^1, D-Ala^2, Fpa5^6, Orn^12, Abu^15, Orn^21, Nle^27, Asp^28, Agm^29]hGHRH(1-29)NH2]	1.43
[NMeY][dA]DAIFTTSYR[Orn]VL[Abu]QLSAR[Orn]LLQDI[Nle]DR-NHMe (also called Peptide 27410) [P-27410 [N-Me-Tyr^1, D-Ala^2, Thr^8, Orn^12, Abu^15, Orn^21, Nle^27, Asp^28]hGHRH(1-29)NH-CH3]	5.24
[NMeY][dA]DAI[Phe(F5)]TNSYR[Orn]VL[Abu]QLSAR[Orn]LLQDI[Nle]DR-NHMe [P-27404 [N-Me-Tyr^1, D-Ala^2, Fpa5^6, Orn^12, Abu^15, Orn^21, Nle^27, Asp^28]hGHRH(1-29)NH-CH3]	5
[NMeY][dA]DAIFTNSYR[Orn]VL[Abu]QLSAR[Orn]LLQDI[Nle]DR-NHMe (also called Peptide 27409; MR-409) [P-27409 [N-Me-Tyr^1, D-Ala^2, Orn^12, Abu^15, Orn^21, Nle^27, Asp^28]hGHRH(1-29)NH-CH3]	4.1
B4	1.3
[NMeY][dA]DAIFTNSYR[Orn]VL[Abu]QLSAR[Orn]LLQDI[Nle]DR-NHEt (also called Peptide 28421) [P-28421 [N-Me-Tyr^1, D-Ala^2, Orn^12, Abu^15, Orn^21, Nle^27, Asp^28]hGHRH(1-29)NH-CH2-CH3]	2.96
B5	1.59
[NMeY][dA]DAIFTQSYR[Orn]VL[Abu]QLSAR[Orn]LLQDI[Nle]DR-NHMe [P-27403 [N-Me-Tyr^1, D-Ala^2, Gln^8, Orn^12, Abu^15, Orn^21, Nle^27, Asp^28]hGHRH(1-29)NH-CH3]	27.2
B6	7.91
